How the values were obtained:
[1] = target: Deinococcus grandis Dps, wild type (Deinococcus grandis); test: SAXS; solution SAXS (batch and SEC-SAXS), 50 mM MOPS pH 7.0 with 50-480 mM NaCl (WT) or 50 and 230 mM NaCl (∆N); ab initio models (GASBOR, DAMMIN) with P23 symmetry set
[2] = target: Deinococcus grandis Dps tailless variant ∆N (lacking the first 46 residues) (Deinococcus grandis); test: as above
[3] = target: Deinococcus grandis Dps tailless variant ∆N (lacking the first 46 residues) (Deinococcus grandis); test: SEC + other: dynamic light scattering; Superdex 200 10/300 GL calibrated with protein standards, and DLS at 25 °C; 200 mM MOPS pH 7.0, 200 mM NaCl; WT also in 50 mM MOPS pH 7.0 with 50-480 mM NaCl; apparent molecular mass and hydrodynamic diameter of the oligomer

| stoichiometry N [1] | stoichiometry N [2] | stoichiometry N [3] | Substance |
| --- | --- | --- | --- |
| 12 |  |  | Deinococcus grandis Dps, wild type (from UniProt A0A100HLL5 1-214) (natural protein) |
|  | 12 | 12 | Deinococcus grandis Dps tailless variant ∆N (lacking the first 46 residues) (from UniProt A0A100HLL5 47-205) (domain or fragment) |
